Results reported in PMC9482650, “Quantitative fragmentomics allow affinity mapping of interactomes” (Nature Communications, 2022).

Experiments:
HeLa cell extract preys = assay: PDZ-AP-MS, biotinylated MBP-PDZ baits; format: binding, human; conditions: for Ratio: fold enrichment of prey; for Difference: log2 enrichment of prey
Method: (§1) For PDZ-AP-MS experiments, PDZ domains were cloned as His6-AviTag-MBP-PDZ constructs. For co-expression with BirA, E. coli BL21(DE3) cells were co-transformed with His6-AviTag-MBP, or His6-AviTag-MBP-PDZ-coding and PET21a-BirA (Addgene #20857) plasmids. Simultaneously to IPTG induction, 50 µM biotin was added to the media. After cell harvesting, the lysis buffer was also supplemented with 50 µM biotin. Otherwise, expression and double affinity purification was identical as previously described in details.
(§2) For PBM-AP-MS experiments, 30 μl streptavidin resin was mixed with biotin or peptide at 50–60 μM concentration in 6–6.5 resin volume for 60 min to achieve resin saturation. For PDZ-AP-MS experiments, 30 μl streptavidin resin was mixed with biotinylated MBP or MBP-PDZ at 40-50 μM concentration in >1000× resin volume for 60 min to achieve resin saturation. After saturation, resins were washed a single time (ten resin volume, holdup buffer), and were depleted with biotin (1 mM biotin, 5–10 resin volume, 10 min). Finally, resins were washed two times. 0.5 ml 2 mg/ml cell lysate was added to the dry resin (1 mg total input) and were incubated at 4 °C for 2 h. Then, the beads were washed three times with 10 resin volume buffer containing: 50 mM TRIS pH 8.5, 150 mM NaCl, 1% TritonX-100, 10× complete EDTA-free protease inhibitor cocktail, 2 mM EDTA, 1 mM TCEP. Then, the beads were washed two times with ten resin volume buffer containing: 50 mM TRIS pH 8.5, 150 mM NaCl, 1 mM TCEP. Finally, captured protein was eluted from the resin in two steps and the eluted fractions were pooled. For each elution the beads were incubated for 30 min with three resin volume buffer containing: 20 mM TRIS pH8.5, 100 mM NaCl, 500 μM TCEP, 8 M Urea. Between each step, the beads were separated by mild centrifugation and the supernatant was removed by gentle pipetting.
(§3) The samples were precipitated with TCA 20% overnight at 4 °C and centrifuged at 14,000 rpm for 10 min at 4 °C. The protein pellets were washed twice with 1 mL cold acetone and air dried. The protein extracts were solubilized in urea 8 M, reduced with 5 mM TCEP for 30 min, and alkylated with 10 mM iodoacetamide for 30 min in the dark. Double digestion was performed at 37 °C with 500 ng endoproteinase Lys-C for 4 h, followed by fourfold dilution and an overnight digestion with 500 ng trypsin. Peptide mixtures were then desalted on C18 spin-column and dried on Speed-Vacuum.
(§4) Samples were analyzed using an Ultimate 3000 nano-RSLC (Thermo Scientific, San Jose California) coupled in line with a LTQ-Orbitrap ELITE mass spectrometer via a nano-electrospray ionization source (Thermo Scientific, San Jose California). Peptide mixtures were injected in 0.1% TFA on a C18 Acclaim PepMap100 trap-column (75 µm ID × 2 cm, 3 µm, 100 Å, Thermo Fisher Scientific) for 3 min at 5 µL/min with 2% ACN, 0.1% FA in H2O and then separated on a C18 Accucore nano-column (75 µm ID × 50 cm, 2.6 µm, 150 Å, Thermo Fisher Scientific) at 220 nl/min and 38 °C with a 90 min linear gradient from 5% to 30% buffer B (A: 0.1% FA in H2O/B: 99% ACN, 0.1% FA in H2O), regeneration at 5% B. The mass spectrometer was operated in positive ionization mode, in data-dependent mode with survey scans from m/z 350–1500 acquired in the Orbitrap at a resolution of 120,000 at m/z 400. The 20 most intense peaks from survey scans were selected for further fragmentation in the Linear Ion Trap with an isolation window of 2.0 Da and were fragmented by CID with normalized collision energy of 35%. (TOP20CID method) Unassigned and single charged states were excluded from fragmentation. The Ion Target Value for the survey scans (in the Orbitrap) and the MS2 mode (in the Linear Ion Trap) were set to 1E6 and 5E3 respectively and the maximum injection time was set to 100 ms for both scan modes. Dynamic exclusion was set to 20 s after one repeat count with mass width at ±10 ppm. […]

HaCat cell extract preys = assay: PDZ-AP-MS, biotinylated MBP-PDZ baits; format: binding, human; conditions: for Difference log2: enrichment of prey
Method: as §1, §2, §3, §4

HEK293T cells = assay: Label-free MS proteome of stable cell lines expressing HPV16 E6 or E6ΔPBM; format: cell-based, human; conditions: protein level
Summary of the method: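 Confluent HEK293T lysates in HEPES-KOH pH 7.5, 1% Triton X-100 buffer, TCA-precipitated, reduced, alkylated, Lys-C then trypsin digested. nanoLC (90 min gradient) on LTQ-Orbitrap Elite, TOP20 CID data-dependent acquisition; SequestHT search of human SwissProt, 1% FDR. Label-free quantification by peptide XIC intensity, technical triplicates.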

B1: NONO (protein, UniProt Q15233 1-471, looked up)
Non-POU domain-containing …: MQSNKTFNLEKQNHTPRKHHQHHHQQQHHQQQQQQPPPPPIPANGQQASSQNEGLTIDLKNFRKPGEKTFTQRSRLFVGNLPPDITEEEMRKLFEKYGKAGEVFIHKDKGFGFIRLETRTLAEIAKVELDNMPLRGKQLRVRFACHSASLTVRNLPQYVSNELLEEAFSVFGQVERAVVIVDDRGRPSGKGIVEFSGKPAARKALDRCSEGSFLLTTFPRPVTVEPMDQLDDEEGLPEKLVIKNQQFHKEREQPPRFAQPGSFEYEYAMRWKALIEMEKQQQDQVDRNIKEAREKLEMEMEAARHEHQVMLMRQDLMRRQEELRRMEELHNQEVQKRKQLELRQEEERRRREEEMRRQQEEMMRRQQEGFKGTFPDAREQEIRMGQMAMGGAMGINNRGAMPPAPVPAGTPAPPGPATMMPDGTLGLTPPTTERFGQAATMEGIGAIGGTPPAFNRAAPGAEFAPNKRRRY
HeLa cell extract preys; bait DLG1_1 PDZ vs MBP control
  Ratio: 31.101
  Difference: 4.959
HeLa cell extract preys; bait SCRIB_2 PDZ (biotinylated MBP-PDZ) vs MBP control
  Difference: 4.7577
HeLa cell extract preys; bait SCRIB_2 PDZ vs MBP control
  Ratio: 27.0527

B2: CDH1 (protein, UniProt P12830 155-882, looked up)
Cadherin-1: DWVIPPISCPENEKGPFPKNLVQIKSNKDKEGKVFYSITGQGADTPPVGVFIIERETGWLKVTEPLDRERIATYTLFSHAVSSNGNAVEDPMEILITVTDQNDNKPEFTQEVFKGSVMEGALPGTSVMEVTATDADDDVNTYNAAIAYTILSQDPELPDKNMFTINRNTGVISVVTTGLDRESFPTYTLVVQAADLQGEGLSTTATAVITVTDTNDNPPIFNPTTYKGQVPENEANVVITTLKVTDADAPNTPAWEAVYTILNDDGGQFVVTTNPVNNDGILKTAKGLDFEAKQQYILHVAVTNVVPFEVSLTTSTATVTVDVLDVNEAPIFVPPEKRVEVSEDFGVGQEITSYTAQEPDTFMEQKITYRIWRDTANWLEINPDTGAISTRAELDREDFEHVKNSTYTALIIATDNGSPVATGTGTLLLILSDVNDNAPIPEPRTIFFCERNPKPQVINIIDADLPPNTSPFTAELTHGASANWTIQYNDPTQESIILKPKMALEVGDYKINLKLMDNQNKDQVTTLEVSVCDCEGAAGVCRKAQPVEAGLQIPAILGILGGILALLILILLLLLFLRRRAVVKEPLLPPEDDTRDNVYYYDEEGGGEEDQDFDLSQLHRGLDARPEVTRNDVAPTLMSVPRYLPRPANPDEIGNFIDENLKAADTDPTAPPYDSLLVFDYEGSGSEAASLSSLNSSESDKDQDYDYLNEWGNRFKKLADMYGGGEDD
HaCat cell extract preys; bait TX1BP3 PDZ vs MBP
  Difference log2: 8.222
HaCat cell extract preys; bait TX1BP3 PDZ, fold change of prey
  Ratio TX1BP3/MBP: 298.682

B3: BAIAP2L1 (protein, UniProt Q9UHR4 1-511, looked up)
BAR/IMD domain-containing …: MSRGPEEVNRLTESTYRNVMEQFNPGLRNLINLGKNYEKAVNAMILAGKAYYDGVAKIGEIATGSPVSTELGHVLIEISSTHKKLNESLDENFKKFHKEIIHELEKKIELDVKYMNATLKRYQTEHKNKLESLEKSQAELKKIRRKSQGSRNALKYEHKEIEYVETVTSRQSEIQKFIADGCKEALLEEKRRFCFLVDKHCGFANHIHYYHLQSAELLNSKLPRWQETCVDAIKVPEKIMNMIEEIKTPASTPVSGTPQASPMIERSNVVRKDYDTLSKCSPKMPPAPSGRAYTSPLIDMFNNPATAAPNSQRVNNSTGTSEDPSLQRSVSVATGLNMMKKQKVKTIFPHTAGSNKTLLSFAQGDVITLLIPEEKDGWLYGEHDVSKARGWFPSSYTKLLEENETEAVTVPTPSPTPVRSISTVNLSENSSVVIPPPDYLECLSMGAAADRRADSARTTSTFKAPASKPETAAPNDANGTAKPPFLSGENPFATVKLRPTVTNDRSAPIIR
HaCat cell extract preys; bait SCRIB_2 PDZ vs MBP
  Difference log2: 3.855
HaCat cell extract preys; bait SCRIB_2 PDZ, fold change of prey
  Ratio SCRIB_2/MBP: 14.4736

B4: PGP (protein, UniProt A6NDG6 1-321, looked up)
Glycerol-3-phosphate …: MAAAEAGGDDARCVRLSAERAQALLADVDTLLFDCDGVLWRGETAVPGAPEALRALRARGKRLGFITNNSSKTRAAYAEKLRRLGFGGPAGPGASLEVFGTAYCTALYLRQRLAGAPAPKAYVLGSPALAAELEAVGVASVGVGPEPLQGEGPGDWLHAPLEPDVRAVVVGFDPHFSYMKLTKALRYLQQPGCLLVGTNMDNRLPLENGRFIAGTGCLVRAVEMAAQRQADIIGKPSRFIFDCVSQEYGINPERTVMVGDRLDTDILLGATCGLKTILTLTGVSTLGDVKNNQESDCVSKKKMVPDFYVDSIADLLPALQG
HEK293T cells; E6 cell line vs control
  Difference log2 E6/Ctrl: 0.3606
  Ratio E6/Ctrl: 1.284
HEK293T cells; dPBM cell line vs E6 cell line
  Difference log2 dPBM/E6: 0.0821
  Ratio dPBM/E6: 1.059
HEK293T cells; dPBM cell line vs control
  Difference log2 dPBM/Ctrl: 0.4427
  Ratio dPBM/Ctrl: 1.359
